Results taken from patent US20210179686A1 (Memorial Sloan Kettering, published 2021).

Legend:
[1] = target: T1, 3N mutant: EE12R3E45L linker EE12RR345L membrane-bound construct; assay: FLAG staining of co-transduced C1498 cells, flow cytometry (FIG. 20)
T1 chain: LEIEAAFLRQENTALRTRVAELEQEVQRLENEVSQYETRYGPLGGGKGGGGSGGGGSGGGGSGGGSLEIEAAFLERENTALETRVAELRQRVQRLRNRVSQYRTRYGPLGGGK
Text: (§1) C1498 cells were co-transduced with the FLAG-RR12EE345L GFP vector and one of the six mutants as part of RR12EE345L linker EE12RR345L BFP vector constructs. […] Thus, mutating the […] leucine zipper at “g” position residues to include repulsive amino acid interactions can reduce the degree of blocking by the linked […]-based mutant leucine zipper.

[2] = target: T2, 3C mutant: RR12345L linker EE12RR345L membrane-bound construct; assay: as above
T2 chain: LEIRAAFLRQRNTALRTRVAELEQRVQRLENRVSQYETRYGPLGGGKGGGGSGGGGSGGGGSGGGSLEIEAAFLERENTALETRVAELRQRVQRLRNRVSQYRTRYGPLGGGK
Text: as §1

[3] = target: T3, 2N mutant: EE12345L linker EE12RR345L membrane-bound construct; assay: as above
T3 chain: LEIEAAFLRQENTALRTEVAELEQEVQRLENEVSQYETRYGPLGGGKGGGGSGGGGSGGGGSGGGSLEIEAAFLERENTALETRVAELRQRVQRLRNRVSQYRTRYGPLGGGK
Text: as §1

[4] = target: T4, 1N mutant: E1R2EE345L linker EE12RR345L membrane-bound construct; assay: as above
T4 chain: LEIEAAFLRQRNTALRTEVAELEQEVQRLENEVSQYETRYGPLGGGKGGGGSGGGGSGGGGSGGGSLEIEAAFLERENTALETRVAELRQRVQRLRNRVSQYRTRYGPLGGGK
Text: as §1

[5] = target: T5, 2M mutant: RR1234E5L linker EE12RR345L membrane-bound construct; assay: as above
T5 chain: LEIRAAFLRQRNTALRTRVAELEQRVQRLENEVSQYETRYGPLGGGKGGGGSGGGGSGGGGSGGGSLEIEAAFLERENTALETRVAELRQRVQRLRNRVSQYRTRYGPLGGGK
Text: as §1

[6] = target: T6, 1M mutant: RR123E45L linker EE12RR345L membrane-bound construct; assay: as above
T6 chain: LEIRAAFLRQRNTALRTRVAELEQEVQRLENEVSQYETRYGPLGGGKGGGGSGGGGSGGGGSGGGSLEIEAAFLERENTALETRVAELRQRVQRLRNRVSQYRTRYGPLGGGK
Text: as §1

[7] = target: T7, RR12EE345L linker EE12RR345L CD80 (mouse (CD80 part, SEQ ID NO: 111)); assay: co-transduced T cells sorted with anti-FLAG magnetic beads (FIG. 21A)
T7 construct: left out; Expressed on T cells from a vector that also carries the CD20-streptag-CAR; also called CD80 functionalized leucine zipper
T7 chain: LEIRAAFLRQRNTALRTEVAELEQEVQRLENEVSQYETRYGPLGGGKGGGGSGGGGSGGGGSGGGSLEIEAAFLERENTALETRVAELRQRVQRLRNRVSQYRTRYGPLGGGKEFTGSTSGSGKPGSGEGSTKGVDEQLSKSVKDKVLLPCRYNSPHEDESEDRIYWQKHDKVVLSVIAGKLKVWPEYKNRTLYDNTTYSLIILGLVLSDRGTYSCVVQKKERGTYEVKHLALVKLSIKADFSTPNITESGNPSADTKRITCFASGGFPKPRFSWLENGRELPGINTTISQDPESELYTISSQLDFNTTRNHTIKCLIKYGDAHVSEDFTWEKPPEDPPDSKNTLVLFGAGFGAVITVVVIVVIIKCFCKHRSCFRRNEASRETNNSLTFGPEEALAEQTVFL
Text: T cells were transduced with vectors encoding (a) FLAG-RR12EE345L iCaspase9 CD19-myc-CAR and (b) RR12EE345L linker EE12RR345L CD80 CD20-streptag-CAR. Next, cells were magnetically sorted with anti-FLAG magnetic beads.

[8] = target: T8, R2-EE12RR345L CD28-9c delta; assay: double-transduced C1498 cells sorted with CD34 beads by the captured Q2 zipper (FIG. 19)
T8 construct: also called tandem circular CD20 mimotope-tagged capture leucine zipper
T8 chain: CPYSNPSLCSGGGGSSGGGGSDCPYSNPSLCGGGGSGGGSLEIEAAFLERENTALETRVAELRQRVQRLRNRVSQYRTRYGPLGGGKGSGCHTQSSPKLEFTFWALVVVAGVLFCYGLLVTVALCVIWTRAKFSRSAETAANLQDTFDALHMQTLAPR
Protocol: Next, the cells were magnetically sorted with CD34 beads. Subsequently, the cells were incubated with antibodies in the presence of complement.

Measured: binding result

B1: FLAG-RR12EE345L leucine zipper (secreted, affinity-tagged) (designed binder)
chain: DYKDDDDKLEIRAAFLRQRNTALRTEVAELEQEVQRLENEVSQYETRYGPLGGGK
notes: also called RR12EE345L-FLAG
not listed: [8]
binds: all other assays above

B2: Q2-RR12EE345L (designed binder)
chain: GSGELPTQGTFSNVSTNVSGGGGSGGGSELPTQGTFSNVSTNVSGGGGSGGGSALGLEIRAAFLRQRNTALRTEVAELEQEVQRLENEVSQYETRYGPLGGGK
binds: [8]
